Laboratory results as given in article PMC8623809.

Key:
[1] = target: porcine gastric mucin (PGM), Sigma Type III; test: Intrinsic tryptophan fluorescence quenching (excitation 280 nm, emission maximum 326 nm), Stern-Volmer analysis; details: 100 mM PBS (composition not further stated), 100 mM PBS adjusted with HCl to pH 7, 5 and 3 (same buffer at all pH values)
[2] = target: bovine submaxillary mucin (BSM), Sigma Type I-S; test: as above; details: 100 mM PBS (composition not further stated), 100 mM PBS adjusted with HCl to pH 7, 5 and 3 (same buffer at all pH values)

Substance: beta-lactoglobulin (BLG)
- Ksv (Stern-Volmer constant, static quenching) (not printed (uM^-1 inferred)) ([1]; pH 3): 1.25
- Ksv (Stern-Volmer constant, static quenching) (not printed (uM^-1 inferred)) ([1]; pH 5): 0.92
- Ksv (Stern-Volmer constant, static quenching) (not printed (uM^-1 inferred)) ([1]; pH 7): 1.08
- Ksv (Stern-Volmer constant, static quenching) (not printed (uM^-1 inferred)) ([2]; pH 3): 0.19
- Ksv (Stern-Volmer constant, static quenching) (not printed (uM^-1 inferred)) ([2]; pH 5): 0.15
- Ksv (Stern-Volmer constant, static quenching) (not printed (uM^-1 inferred)) ([2]; pH 7): 0.23
